# According to patent EP4361176A1 (CHUGAI SEIYAKU KABUSHIKI KAISHA, dated 2024):
# T1: hFcyRIIaH on hFcyRIIaH-expressing Jurkat cells (human, UniProt P12318 34-317)
# T1 sequence (looked up): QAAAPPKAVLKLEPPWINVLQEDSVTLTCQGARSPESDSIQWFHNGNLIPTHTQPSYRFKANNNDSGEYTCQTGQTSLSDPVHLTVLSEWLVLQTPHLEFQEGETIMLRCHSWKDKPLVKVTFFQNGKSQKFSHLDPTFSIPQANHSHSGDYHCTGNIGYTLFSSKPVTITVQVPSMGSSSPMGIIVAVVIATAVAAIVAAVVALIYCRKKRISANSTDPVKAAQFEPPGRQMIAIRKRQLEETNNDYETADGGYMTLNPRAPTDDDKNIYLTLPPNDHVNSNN
# T2: human FcγRIIa H extracellular domain (human, UniProt P12318 34-217)
# T2 construct: extracellular domain; Made by the method of WO2014104165; also called hFcγR IIa H; FcyRIIaH
# T2 sequence (looked up): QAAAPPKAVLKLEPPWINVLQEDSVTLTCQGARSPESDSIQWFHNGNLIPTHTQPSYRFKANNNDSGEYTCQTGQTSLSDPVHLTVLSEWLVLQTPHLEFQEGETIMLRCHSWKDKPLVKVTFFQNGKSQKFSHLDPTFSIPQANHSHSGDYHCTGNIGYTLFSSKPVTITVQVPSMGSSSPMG
# How the values were obtained:
# [1] = target: hFcyRIIIaV on hFcyRIIIaV-expressing Jurkat cells (human, UniProt P08637 17-254); test: cell-based or functional assay
# [2] = target: T1, hFcyRIIaH on hFcyRIIaH-expressing …; test: cell-based or functional assay
# [3] = target: T2, human FcγRIIa H extracellular domain; test: SPR; KD for FcγRIIb divided by KD for this FcγR
# [4] = target: T3, human FcγRIIIa F extracellular domain (human, UniProt P08637 17-208); test: SPR; KD for FcγRIIb divided by KD for this FcγR
# T3 construct: extracellular domain; Made by the method of WO2014104165; also called hFcγR IIIa F; FcyRIIIaF
# T3 sequence (P08637 17-208): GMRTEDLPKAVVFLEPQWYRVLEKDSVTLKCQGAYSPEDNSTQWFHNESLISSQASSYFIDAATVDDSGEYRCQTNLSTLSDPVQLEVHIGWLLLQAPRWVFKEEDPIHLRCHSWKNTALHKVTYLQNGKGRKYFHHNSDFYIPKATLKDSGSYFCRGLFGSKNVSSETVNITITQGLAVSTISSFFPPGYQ
# hFcyRIIIaV on hFcyRIIIaV-expressing Jurkat cells, sequence (P08637 17-254): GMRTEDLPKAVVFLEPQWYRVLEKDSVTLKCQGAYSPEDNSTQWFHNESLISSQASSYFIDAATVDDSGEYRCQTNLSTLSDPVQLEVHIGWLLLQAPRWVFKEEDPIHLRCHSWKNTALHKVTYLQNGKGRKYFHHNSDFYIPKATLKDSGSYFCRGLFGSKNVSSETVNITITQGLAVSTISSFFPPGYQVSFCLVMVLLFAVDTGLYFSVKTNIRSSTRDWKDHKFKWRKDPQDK
Binder,"EC50 value (µg/mL), ADCC reporter bioassay (fold induction of luminescence), Hepa1-6/hEREG target cells [1] [µg/mL]","EC50 value (µg/mL), ADCP reporter bioassay (fold induction of luminescence), Hepa1-6/hEREG target cells [2] [µg/mL]",A/I ratio (KD for FcγRIIb divided by KD for each FcyR) [3],A/I ratio (KD for FcγRIIb divided by KD for each FcyR) [4]
"H240-Kn496/L73-k0//H240-Hl516/L73-k0 (antibody, human IgG1, kappa, also called EGL-ART11; ART11) heavy 1: QDQLVQSGAEVKKPGASVKVSCKASGFNIKDTYIQWVRQAPGQGLEWMGRIDPLRKQTKYREKFEGRVTITADTSTNTAYMELSSLRSEDTAVYYCVRSGREFDYWGQGTLVTVSSASTKGPSVFPLAPSSKSTSGGTAALGCLVKDYFPEPVTVSWNSGALTSGVHTFPAVLQSSGLYSLSSVVTVPSSSLGTQTYICNVNHKPSNTKVDKKVEPKSCDKTHTCPPCPAPEFQWGPMVFLFPPKPKDVLMISRTPEVTCVVVDVSDEEPEVKFNWYVDGVEVHNAKTKPREEQYNATYRVVSVLPVLHQDWLNGKEYKCKVSNKALPAPIEKTISKAKGQPREPQVCTLPPSRDELTKNQVSLWCLVKGFYPSDIAVEWESNGQPENNYKTTPPVLDSDGSFFLYSKLTVDKSRWQQGNVFSCSVMHEALHNHYTQKSLSLSP heavy 2: QDQLVQSGAEVKKPGASVKVSCKASGFNIKDTYIQWVRQAPGQGLEWMGRIDPLRKQTKYREKFEGRVTITADTSTNTAYMELSSLRSEDTAVYYCVRSGREFDYWGQGTLVTVSSASTKGPSVFPLAPSSKSTSGGTAALGCLVKDYFPEPVTVSWNSGALTSGVHTFPAVLQSSGLYSLSSVVTVPSSSLGTQTYICNVNHKPSNTKVDKKVEPKSCDKTHTCPPCPAPELLGGPSVFLFPPKPKDVLMISRTPEVTCVVVDVSHEEPEVKFNWYVDGVEVHNAKTKPREEQYNATYRVVSVLPVLHQDWLNGKEYKCKVSNDALPAPIEETISKAKGQPREPQVYTLPPSRCELTKNQVSLSCAVKGFYPSDIAVEWESNGQPENNYKTTPPVLDSDGSFFLVSKLTVDKSRWQQGNVFSCSVMHEALHNHYTQKSLSLSP light: DIQMTQSPSSLSASVGDRVTITCRASQDIHKYIAWYQQKPGQAPRLLIQYTSTLQPGVPSRFSGSGSGTDYTFTISSLQPEDIATYYCLQYEQLRTFGGGTKVEIKRTVAAPSVFIFPPSDEQLKSGTASVVCLLNNFYPREAKVQWKVDNALQSGNSQESVTEQDSKDSTYSLSSTLTLSKADYEKHKVYACEVTHQGLSSPVTKSFNRGEC",0.000413,0.0367,63.3,694
"H240-G1d/L73-k0 (antibody, human IgG1, kappa, Anti-human Epiregulin antibody with the human IgG1 constant region G1d (C-terminal Gly and Lys removed); the text gives 279; also called EGL-G1d) heavy: not shown light: DIQMTQSPSSLSASVGDRVTITCRASQDIHKYIAWYQQKPGQAPRLLIQYTSTLQPGVPSRFSGSGSGTDYTFTISSLQPEDIATYYCLQYEQLRTFGGGTKVEIKRTVAAPSVFIFPPSDEQLKSGTASVVCLLNNFYPREAKVQWKVDNALQSGNSQESVTEQDSKDSTYSLSSTLTLSKADYEKHKVYACEVTHQGLSSPVTKSFNRGEC",0.0463,–,8.9,3.4
"H240-Kn032/L73-k0//H240-Hl032/L73-k0 (antibody, human IgG1, kappa, also called EGL-SDALIE; SDALIE) heavy 1: QDQLVQSGAEVKKPGASVKVSCKASGFNIKDTYIQWVRQAPGQGLEWMGRIDPLRKQTKYREKFEGRVTITADTSTNTAYMELSSLRSEDTAVYYCVRSGREFDYWGQGTLVTVSSASTKGPSVFPLAPSSKSTSGGTAALGCLVKDYFPEPVTVSWNSGALTSGVHTFPAVLQSSGLYSLSSVVTVPSSSLGTQTYICNVNHKPSNTKVDKKVEPKSCDKTHTCPPCPAPELLGGPDVFLFPPKPKDTLMISRTPEVTCVVVDVSHEDPEVKFNWYVDGVEVHNAKTKPREEQYNSTYRVVSVLTVLHQDWLNGKEYKCKVSNKALPLPEEKTISKAKGQPREPQVCTLPPSRDELTKNQVSLWCLVKGFYPSDIAVEWESNGQPENNYKTTPPVLDSDGSFFLYSKLTVDKSRWQQGNVFSCSVMHEALHNHYTQKSLSLSP heavy 2: QDQLVQSGAEVKKPGASVKVSCKASGFNIKDTYIQWVRQAPGQGLEWMGRIDPLRKQTKYREKFEGRVTITADTSTNTAYMELSSLRSEDTAVYYCVRSGREFDYWGQGTLVTVSSASTKGPSVFPLAPSSKSTSGGTAALGCLVKDYFPEPVTVSWNSGALTSGVHTFPAVLQSSGLYSLSSVVTVPSSSLGTQTYICNVNHKPSNTKVDKKVEPKSCDKTHTCPPCPAPELLGGPDVFLFPPKPKDTLMISRTPEVTCVVVDVSHEDPEVKFNWYVDGVEVHNAKTKPREEQYNSTYRVVSVLTVLHQDWLNGKEYKCKVSNKALPLPEEKTISKAKGQPREPQVYTLPPSRCELTKNQVSLSCAVKGFYPSDIAVEWESNGQPENNYKTTPPVLDSDGSFFLVSKLTVDKSRWQQGNVFSCSVMHEALHNHYTQKSLSLSP light: DIQMTQSPSSLSASVGDRVTITCRASQDIHKYIAWYQQKPGQAPRLLIQYTSTLQPGVPSRFSGSGSGTDYTFTISSLQPEDIATYYCLQYEQLRTFGGGTKVEIKRTVAAPSVFIFPPSDEQLKSGTASVVCLLNNFYPREAKVQWKVDNALQSGNSQESVTEQDSKDSTYSLSSTLTLSKADYEKHKVYACEVTHQGLSSPVTKSFNRGEC",0.00178,–,2.2,98.7

# Next, values leading:
"EC50 value (µg/mL), ADCC reporter bioassay (fold induction of luminescence), Hepa1-6/hEREG target cells [1] [µg/mL]","EC50 value (µg/mL), ADCP reporter bioassay (fold induction of luminescence), Hepa1-6/hEREG target cells [2] [µg/mL]",A/I ratio (KD for FcγRIIb divided by KD for each FcyR) [3],A/I ratio (KD for FcγRIIb divided by KD for each FcyR) [4],Binder
0.000716,0.0353,47.4,4950,"H240-Kn125/L73-k0//H240-Hl076/L73-k0 (antibody, human IgG1, kappa, Heterodimerized anti-human Epiregulin antibody, asymmetric Fc variant; also called EGL-ART1; ART1) heavy 1: QDQLVQSGAEVKKPGASVKVSCKASGFNIKDTYIQWVRQAPGQGLEWMGRIDPLRKQTKYREKFEGRVTITADTSTNTAYMELSSLRSEDTAVYYCVRSGREFDYWGQGTLVTVSSASTKGPSVFPLAPSSKSTSGGTAALGCLVKDYFPEPVTVSWNSGALTSGVHTFPAVLQSSGLYSLSSVVTVPSSSLGTQTYICNVNHKPSNTKVDKKVEPKSCDKTHTCPPCPAPEYQWGPMVFLFPPKPKDTLMISRTPEVTCVVVDVSDEEPEVKFNWYVDGVEVHNAKTKPREEQYNATYRVVSVLTVLHQDWLNGKEYKCKVSNKALPAPIEKTISKAKGQPREPQVCTLPPSRDELTKNQVSLWCLVKGFYPSDIAVEWESNGQPENNYKTTPPVLDSDGSFFLYSKLTVDKSRWQQGNVFSCSVMHEALHNHYTQKSLSLSP heavy 2: QDQLVQSGAEVKKPGASVKVSCKASGFNIKDTYIQWVRQAPGQGLEWMGRIDPLRKQTKYREKFEGRVTITADTSTNTAYMELSSLRSEDTAVYYCVRSGREFDYWGQGTLVTVSSASTKGPSVFPLAPSSKSTSGGTAALGCLVKDYFPEPVTVSWNSGALTSGVHTFPAVLQSSGLYSLSSVVTVPSSSLGTQTYICNVNHKPSNTKVDKKVEPKSCDKTHTCPPCPAPELLGGPSVFLFPPKPKDTLMISRTPEVTCVVVDVSHEEPEVKFNWYVDGVEVHNAKTKPREEQYNSTYRVVSVLTVLHQDWLNGKEYKCKVSNDALPMPIEETISKAKGQPREPQVYTLPPSRCELTKNQVSLSCAVKGFYPSDIAVEWESNGQPENNYKTTPPVLDSDGSFFLVSKLTVDKSRWQQGNVFSCSVMHEALHNHYTQKSLSLSP light: DIQMTQSPSSLSASVGDRVTITCRASQDIHKYIAWYQQKPGQAPRLLIQYTSTLQPGVPSRFSGSGSGTDYTFTISSLQPEDIATYYCLQYEQLRTFGGGTKVEIKRTVAAPSVFIFPPSDEQLKSGTASVVCLLNNFYPREAKVQWKVDNALQSGNSQESVTEQDSKDSTYSLSSTLTLSKADYEKHKVYACEVTHQGLSSPVTKSFNRGEC"
0.00135,0.0218,5.8,68.4,"H240-Kn120/L73-k0//H240-Hl068/L73-k0 (antibody, human IgG1, kappa, also called EGL-ART2; ART2) heavy 1: QDQLVQSGAEVKKPGASVKVSCKASGFNIKDTYIQWVRQAPGQGLEWMGRIDPLRKQTKYREKFEGRVTITADTSTNTAYMELSSLRSEDTAVYYCVRSGREFDYWGQGTLVTVSSASTKGPSVFPLAPSSKSTSGGTAALGCLVKDYFPEPVTVSWNSGALTSGVHTFPAVLQSSGLYSLSSVVTVPSSSLGTQTYICNVNHKPSNTKVDKKVEPKSCDKTHTCPPCPAPEYYWGPMVFLFPPKPKDTLMISRTPEVTCVVVDVSDEDPEVKFNWYVDGVEVHNAKTKPREEQYNATYRVVSVLTVLHQDWLNGKEYKCKVSNKDLPAPIEKTISKAKGQPREPQVCTLPPSRDELTKNQVSLWCLVKGFYPSDIAVEWESNGQPENNYKTTPPVLDSDGSFFLYSKLTVDKSRWQQGNVFSCSVMHEALHNHYTQKSLSLSP heavy 2: QDQLVQSGAEVKKPGASVKVSCKASGFNIKDTYIQWVRQAPGQGLEWMGRIDPLRKQTKYREKFEGRVTITADTSTNTAYMELSSLRSEDTAVYYCVRSGREFDYWGQGTLVTVSSASTKGPSVFPLAPSSKSTSGGTAALGCLVKDYFPEPVTVSWNSGALTSGVHTFPAVLQSSGLYSLSSVVTVPSSSLGTQTYICNVNHKPSNTKVDKKVEPKSCDKTHTCPPCPAPELLGGPSVFLFPPKPKDTLMISRTPEVTCVVVDVSHEEPEVKFNWYVDGVEVHNAKTKPREEQYNSTYRVVSVLTVLHQDWLNGKEYKCKVSNDALPKPIEETISKAKGQPREPQVYTLPPSRCELTKNQVSLSCAVKGFYPSDIAVEWESNGQPENNYKTTPPVLDSDGSFFLVSKLTVDKSRWQQGNVFSCSVMHEALHNHYTQKSLSLSP light: DIQMTQSPSSLSASVGDRVTITCRASQDIHKYIAWYQQKPGQAPRLLIQYTSTLQPGVPSRFSGSGSGTDYTFTISSLQPEDIATYYCLQYEQLRTFGGGTKVEIKRTVAAPSVFIFPPSDEQLKSGTASVVCLLNNFYPREAKVQWKVDNALQSGNSQESVTEQDSKDSTYSLSSTLTLSKADYEKHKVYACEVTHQGLSSPVTKSFNRGEC"
